This passage reports Concentration on aFVIII/Myc ÷ concentration on aHis/Myc, Ratio to Control and Relative Remaining Activity results from US20230322900A1.

In experiment [1] the target is FVIII-XTEN-His-Myc, XTEN insertion A3, 1656, AG144 (human). Description: sandwich ELISA, antibody capture, anti-Myc detection, normalised to anti-His capture. Background: In an ELISA, binding on a coated surface is turned into a signal by an enzyme label.
Experiment [2] concerns the target FVIII-XTEN-His-Myc, XTEN insertion A1, 40, AE144 (human). The description is as above.
The target of experiment [3] is FVIII-XTEN-His-Myc, XTEN insertion A2, 399, AE144 (human). Described as above.
Experiment [4] deals with FVIII-XTEN-His-Myc, XTEN insertion A1, 18, AG144 (human). The description is as above.
The target of experiment [5] is FVIII-XTEN-His-Myc, XTEN insertion A2, 403, AE144 (human). The experiment is described as above.
Experiment [6] has as its target FVIII-His-Myc (non-XTEN containing FVIII-His-Myc protein) (human). Described as above.
Experiment [7] has as its target FVIII-XTEN-His-Myc, XTEN insertion A2, 403, AG144 (human). The description is as above.
In experiment [8] the target is FVIII-XTEN-His-Myc, XTEN insertion A1, 26, AG144 (human). The description is as above.
Experiment [9] deals with FVIII-XTEN-His-Myc, XTEN insertion A1, 18, AE144 (human). Described as above.
Experiment [10] deals with FVIII-XTEN-His-Myc, XTEN insertion A1, 40, AG144 (human). The experiment is described as above.
For experiment [11], the target named is FVIII-XTEN-His-Myc, XTEN insertion A1, 26, AE144 (human). The experiment is described as above.
In another experiment the target is pBC0149 (human) (UniProt P00451). Description: cell-based or functional assay.
The target in experiment [12] is pBC0114 BDD FVIII base construct (pcDNA4-FVIII_4-…-Myc-SPATG-His) (human) (UniProt P00451). Description: cell-based or functional assay.

On to “ESH8 anti-FVIII antibody (American Diagnostica Inc.)”, for which the Concentration on aFVIII/Myc ÷ concentration on aHis/Myc in [1] came to 158%; in experiment [2], 147%; in experiment [3], 140%; in experiment [4], 131%; in experiment [5], 141%; in [6] it was 104%. In addition, the Concentration on aFVIII/Myc ÷ concentration on aHis/Myc turned out to be 129% in experiment [7]; 147% in [8]; 130% in [9]; 153% in [10]; 87% in [11].

Turning to GMA8008 FVIII inhibitor antibody, in the experiment with pBC0149 (human), the Ratio to Control is 0.8 and the Relative Remaining Activity turned out to be 0.1. The Ratio to Control in [12] amounted to 1.

For the substance “GMA-8021 anti-FVIII monoclonal antibody (Green Mountain Antibodies)”, the values for the Ratio to Control (with pBC0149 (human); in [12]) were 1.3 and 1, respectively. In the experiment with pBC0149 (human), this substance came in with a Relative Remaining Activity of 0.2. The Concentration on aFVIII/Myc ÷ concentration on aHis/Myc in [1] turned out to be 153%; in experiment [2] it was 137%; in experiment [3], 100%; in experiment [4], 150%; in experiment [5] it was 103%; in experiment [6], 92%. In addition, the Concentration on aFVIII/Myc ÷ concentration on aHis/Myc in [7] was determined as 104%; in [8] it was 157%; in experiment [9] it was 129%; in [10] it was 164%; in [11], 155%.
